From patent US7060677B1, “Antimicrobial activity of the first cationic cluster of human lactoferrin” (priority 1999, dated 2006)
“Also recorded” adds a separate entry of the source. Marks after values point to notes of the source that are not given here.

Tests used:
[1] = tested on: L. monocytogenes; assay: Assay for antibacterial activity (in vitro killing, viable count); format: cell-based, Listeria monocytogenes strain EGD; conditions: for CFU of bacteria, L. monocytogenes: 4 μM protein, approx. 1 × 10^6 CFU, PBS-Tw (pH 6.0), 3 h at 37° C., mean ± SD of 3–5 experiments
Description: (§1) Listeria monocytogenes strain EGD. Klebsiella pneumoniae (43816), and Escherichia coli O54 were purchased from the American Type Culture Collection (Rockville, Md.). Antibiotic resistant S. aureus, K. pneumoniae and E. coli were cultured overnight in nutrient broth (Oxoid, Basingstoke, UK) at 37° C., diluted in tryptase soya broth (TSB, Oxoid) and cultured for an additional 2 h in a shaking waterbath at 37° C. L. monocytogenes was cultured overnight in brain heart infusion broth (BHI, Oxoid) at 37° C. diluted and cultured for an additional 2 h in a shaking waterbath at 37° C.
(§2) In short, bacteria were washed with phosphate-buffered saline (PBS) (pH 7.4) and diluted to a concentration of approximately 2×10^6 CFU/ml of phosphate-buffered saline (pH 6.0) supplemented with 0.1% (v/v) Tween-20 (hereafter designated as PBS-Tw). […] At various time intervals (range 0–4 h) after incubation at 37° C. the number of viable bacteria was determined microbiologically. As negative controls, bovine serum albumin (BSA; Sigma) or no peptide were included.

[2] = tested on: antibiotic resistant S. aureus; assay: as above; format: cell-based, Staphylococcus aureus strain 2141; conditions: for CFU of bacteria, antibiotic resistant S. aureus: 4 μM protein, approx. 1 × 10^6 CFU, PBS-Tw (pH 6.0), 3 h at 37° C., mean ± SD of 3–5 experiments
Description: as §1, §2

[3] = tested on: K. pneumoniae; assay: as above; format: cell-based, Klebsiella pneumoniae (43816)
Description: as §1, §2

[4] = tested on: E. coli; assay: as above; format: cell-based, Escherichia coli O54; conditions: for CFU of bacteria, E. coli: 4 μM protein, approx. 1 × 10^6 CFU, PBS-Tw (pH 6.0), 3 h at 37° C., mean ± SD of 3–5 experiments
Description: as §1, §2

[5] = tested on: the various bacteria (L. monocytogenes, antibiotic resistant S. aureus, K. pneumoniae, E. coli); assay: Assay for antibacterial activity, statements on the various bacteria together; format: cell-based
Description: as §1, §2

[6] = tested on: L. monocytogenes; assay: Assay for membrane permeability (propidium iodide, FACS); format: cell-based, Listeria monocytogenes; conditions: period of analysis 4 h after addition of the protein
Description: (§3) Changes in the membrane permeability of bacteria upon exposure to hLF, hLF^−3N and related peptides were monitored after incubation with propidium iodide (PI; Sigma), using FACS analysis (12, 20). Stock solutions of PI (1 mg/ml of deionized water) were prepared. Approximately 2×10^6 bacteria/ml of PBS-Tw were incubated for various intervals at 37° C., washed, incubated for 5 min with 1 μg of PI/ml (final concentration) and then analyzed with a FACScan (Becton & Dickinson, CA) equipped with a argon-laser at 488 nm. The photomultiplier voltages were routinely set at 500 V for PI fluorescence intensity in the second channel. Data acquisition and analysis were controlled using the Lysis II software.

[7] = tested on: E. coli; assay: as above; format: cell-based, Escherichia coli; conditions: period of analysis 4 h after addition of the protein
Description: as §3

[8] = tested on: bacteria; assay: Assay for membrane permeability (propidium iodide, FACS), bacteria in general; format: cell-based
Description: as §3

[9] = tested on: L. monocytogenes; assay: Assay for non-specific esterase activity (SFDA, FACS); format: cell-based, Listeria monocytogenes; conditions: within 1–2 hours after addition; FIG. 4: 4 μM
Description: (§4) As an indication of intracellular effects of hLF, hLF^−3N and related peptides (e.g., hLF (1–11) and hLF(21–31) in bacteria, the non-specific esterase activity of bacteria upon exposure to these antimicrobial proteins/peptides was assessed using 5-sulfofluorescein diacetate (SFDA; Molecular Probes, Leiden, The Netherlands) and FACS analysis (21). For these experiments, a stock solution of SFDA (1 mg/ml of ethanol) was prepared. Approximately 2×10^6 CFU of bacteria/ml of PBS-Tw were incubated with various concentrations of hLF, hLF^−3N and hLF related peptides for various intervals at 37° C., washed, incubated with 100 μM of SFDA/ml (final concentration ethanol 20% v/v) for 20 min at room temperature in the dark and then analyzed with a FACScan using the photomultiplier voltage of the first channel set at 700 V.

[10] = tested on: E. coli; assay: as above; format: cell-based, Escherichia coli; conditions: within 1–2 hours after addition
Description: as §4

[11] = tested on: bacteria; assay: Assay for non-specific esterase activity (SFDA, FACS), bacteria in general; format: cell-based
[12] = tested on: antibiotic resistant S. aureus; assay: Experimental thigh muscle infection; format: in vivo, mice; conditions: FIG. 5
Description: In short, specific pathogen-free, male. Swiss mice weighing 20–25 g (Broekman Institute, Someren, The Netherlands) were anaesthetized with a single intraperitoneal injection of 0.1 ml of saline containing 1 mg fluanisone and 0.03 mg fentanyl citrate (Hypnorm, Janssen Pharmaceutics, Tilburg, The Netherlands). Preceding scintigraphy, a subcutaneous injection of 0.1 ml, containing 0.2 mg diazepam (Valium, Hoffmann-La Roche, Mijdrecht, The Netherlands) was administered. […] As a control, mice were injected with 0.2 ml of saline containing BSA or saline without any peptide. […] Next, the infected thigh muscles were removed and, after weighing, homogenized in 4 ml of PBS. Appropriate dilutions of the homogenates were applied onto diagnostic sensitivity test plates (Oxoid), and the number of colonies counted after an overnight culture at 37° C. Results are expressed as the number of CFUs per gram of infected tissue.

[13] = Pharmacology of 99mTc-labeled hLF and peptides by scintigraphy in infected mice; conditions: mouse, in vivo
Description: Lactoferrins and related peptides were labeled with ^99mTechnetium (^99mTc) as described (22, 23). Briefly, 10 μl of a peptide solution (1 mg/ml of HAc) was added to 2 μl of an aseptic solution of 0.5 mg of stannous pyrophosphate/ml (Dept. of Clinical Pharmacy and Toxicology. Leiden University Medical Center (LUMC). Leiden. The Netherlands). Immediately thereafter, 4 μl of a solution of 10 mg of KBH4 (crystalline. Sigma) per ml of 0.1 M NaOH was added. After addition of 0.1 ml of ^99mTc-sodium pertechnetate solution (200 MBq/ml. Mallinckrodt Medical BV, Petten, The Netherlands), the mixture was gently stirred at ambient temperature for 30 min and then was ready for use. Quality control of the labeling was performed by RP-HPLC analysis using a Sep-Pak C18 cartridge (Waters, Milford, Mass.) in 20 ml of 0.01 M HAc. After rinsing with 20 ml of 0.01 M HAc, proteins and peptides were eluted with 2 ml of methanol (Sigma). […]
On the scintigrams, anatomically adjusted regions of interest (ROI) were drawn over the various organs and both thighs providing data about clearance of ^99mTc-peptides and accumulation at the site of infection. […] The amount of radioactivity in the heart was corrected for decay and expressed as a percentage of injected dose (% ID).

B1: hLF: Natural human lactoferrin (Mr 77,000) purified from the fresh milk of a single donor, N-terminus intact; SEQ ID NO:1 (protein, listed as Homo sapiens)
chain: GRRRRSVQWCAVSQPEATKCFQWQRNMRKVRGPPVSCIKRDSPIQCIQAIAENRADAVTLDGGFIYEAGLAPYKLRPVAAEVYGTERQPRTHYYAVAVVKKGGSFQLNELQGLKSCHTGLRRTAGWNVPIGTLRPFLNWTGPPEPIEAAVARFFSASCVPGADKGQFPNLCRLCAGTGENKCAFSSQEPYFSYSGAFKCLRDGAGDVAFIRESTVFEDLSDEAERDEYELLCPDNTRKPVDKFKDCHLARVPSHAVVARSVNGKEDAIWNLLRQAQEKFGKDKSPKFQLFGSPSGQKDLLFKDSAIGFSRVPPRIDSGLYLGSGYFTAIQNLRKSEEEVAARRARVVWCAVGEQELRKCNQWSGLSEGSVTCSSASTTEDCIALVLKGEADAMSLDGGYVYTAGKCGLVPVLAENYKSQQSSDPDPNCVDRPVEGYLAVAVVRRSDTSLTWNSVKGKKSCHTAVDRTAGWNIPMGLLFNQTGSCKFDEYFSQSCAPGSDPRSNLCALCIGDEQGENKCVPNSNERYYGYTGAFRCLAENAGDVAFVKDVTVLQNTDGNNNEAWAKDLKLADFALLCLDGKRKPVTEARSCHLAMAPNHAVVSRMDKVERLKQVLLHQQAKFGRNGSDCPDKFCLFQSETKNLLFNDNTECLARLHGKTTYEKYLGPQYVAGITNLKKCSTSPLLEACEFLRK
CFU of bacteria, L. monocytogenes [1]: 2.4 ± 0.9 × 10^4*^,** CFU | CFU of bacteria, L. monocytogenes ([1]; listed as hLF^3N): 4.8 ± 2.4 × 10^5 CFU | Killing of L. monocytogenes by the protein (in words) ([1]; dose-dependent, FIGS. 1A–1E): killed | CFU of bacteria, antibiotic resistant S. aureus [2]: 6.9 ± 2.1 × 10^4*^,** CFU | CFU of bacteria, antibiotic resistant S. aureus ([2]; listed as hLF^3N): 5.6 ± 1.9 × 10^5 CFU | Killing of antibiotic resistant S. aureus by the protein (in words) ([2]; dose-dependent, FIGS. 1A–1E): killed | CFU of bacteria, K. pneumoniae ([3]; 4 μM protein, approx. 1 × 10^6 CFU, PBS-Tw (pH 6.0), 3 h at 37° C., mean ± SD of 3–5 experiments, listed as hLF^3N): 6.8 ± 1.5 × 10^5 CFU | Killing of K. pneumoniae by the protein (in words) ([3]; dose-dependent, FIGS. 1A–1E): killed | CFU of bacteria, E. coli [4]: 3.0 ± 0.3 × 10^6 CFU | CFU of bacteria, E. coli ([4]; listed as hLF^3N): 9.5 ± 8.2 × 10^5 CFU | Killing of E. coli by the protein (in words) ([4]; Table 1, even at concentrations up to 12 μM): not killed | Speed of killing these bacteria, natural hLF compared with hLF^−3N ([5]; 4 μM, FIGS. 1C–1E, p<0.05): faster (p<0.05) than hLF^−3N | Effect on the number of viable bacteria at 4° C. ([5]; 4° C.): no affect; also recorded: not able to kill bacteria | Potency in killing, natural hLF compared with hLF^−3N ([5]; dose-dependent killing, FIGS. 1A–1B, p<0.05): more potent (p<0.05) than hLF^−3N | Change of the membrane permeability of L. monocytogenes [6]: not followed by a significant change | Change of the membrane permeability of E. coli [7]: not followed by a significant change | Membrane permeability of the bacteria, proteins (conclusions) [8]: without affecting | Intracellular non-specific esterase activity of L. monocytogenes [9]: inhibited | Intracellular non-specific esterase activity of E. coli [10]: not | Non-specific esterase activity of the bacteria (conclusions) [11]: inhibited | Effect on the non-specific esterase activity at 4° C. ([11]; 4° C.): no affect; also recorded: not able | Amount at which maximum effects on viable bacteria were seen ([12]; mice infected with antibiotic resistant S. aureus, 24 h after injection): 1 nmol | Number of viable bacteria in mice infected with antibiotic resistant S. aureus ([12]; within 24 h after intravenous injection, thigh muscle): reduced in a dose-dependent fashion | Amount at the site of infection, hLF compared with hLF^−3N [13]: did not differ | mean t1/2 of removal from the circulation [13]: approximately 19 min
